System: IRF
Assay: IRF reporter assay in isogenic cGAS-, STING- and IRF-deficient macrophages
Type: cell-based
Conditions: IRF-deficient macrophages, FIG. 2D
From the text: (A) ICP-MS to quantify cellular level of gold in cells treated with ISD45-SNAs. (B-D) Luciferase reporter assay to quantify IRF induction in RAW-Lucia™ macrophages (B), THP cells (C), and in WT, cGAS-, STING- and IRF-deficient RAW-Lucia™ macrophages. TFX, transfection agent. Median+/−standard deviation is shown. *p<0.05. (E) Multiplex ELISA-based and (F) antibody array-based cytokine profiling in RAW-Lucia™ macrophages.
To exploit the SNA architecture for cGAS activation, we synthesized ISD45-SNAs by conjugating 13 nm gold nanoparticles with 45 base pair (bp) dsISD oligonucleotides (ISD^45-SNAs; FIG. 1A), as 45 bp ISD oligonucleotides represent the most used and widely characterized cGAS activator^7. The terms “dsISD^45” and “ISD^45” are interchangeable as used herein. Citrate-stabilized gold nanoparticles were prepared using the Frens method^4,8,9. […] In addition, by generating melting curves, using an OliGreen fluorescence assay, and determining the zeta potential, oligonucleotide incorporation was quantified^4,8,9. […] Upon cGAS enzyme deactivation, the mixture was added to cGAS-deficient RAW-Lucia™ macrophages, carrying stable integration of an IRF-inducible Lucia luciferase reporter to quantify IRF induction luminometrically. […]

B1: ISD-45: free 45 bp interferon-stimulatory dsDNA oligonucleotide, the most used and widely characterized cGAS activator (nucleic acid)
sense: TACAGATCTACTAGTGATCTATGACTGATCTGTACATGATCTACA
antisense: ACATCTAGTACATGTCTAGTCAGTATCTAGTGATCATCAGACA
modifications: DNA, backbone and methylation of C not given here
IRF induction in the absence of STING, cGAS or IRF: blunted

Source: US20250002921A1, “SPHERICAL NUCLEIC ACIDS FOR cGAS-STING AND STAT3 PATHWAY MODULATION FOR THE IMMUNOTHERAPEUTIC TREATMENT OF CANCER” (NORTHWESTER UNIVERSITY, priority 2021, published 2025)
